Experimental data from publication PMC9709071, “A stable, engineered TL1A ligand co-stimulates T cells via specific binding to DR3” (Scientific Reports, 2022).
Numbering of substitutions follows the chain as printed. Names may count otherwise.

T1: DcR3 (TNFRSF6B) (UniProt O95407 30-300)
T1 construct: soluble decoy receptor DcR3 (TNFRSF6B); the catalogue product is, as I recall, an Fc chimera; the SPR methods name capture by goat anti-human-Fc; also called decoy receptor DcR3; recombinant DcR3 protein
T1 sequence (looked up): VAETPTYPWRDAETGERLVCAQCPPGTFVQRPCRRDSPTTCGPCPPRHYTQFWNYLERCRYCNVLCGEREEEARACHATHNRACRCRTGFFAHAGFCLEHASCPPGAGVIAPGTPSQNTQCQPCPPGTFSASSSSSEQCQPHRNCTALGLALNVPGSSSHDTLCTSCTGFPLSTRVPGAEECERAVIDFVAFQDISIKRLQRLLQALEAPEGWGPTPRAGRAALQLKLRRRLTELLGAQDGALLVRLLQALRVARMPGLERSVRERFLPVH

B1: TL1W328.001 (K111A L123K M158Y Q167A S187L N207F) (Fc fusion, human)
chain: VYAPLRADGDKPRAHLTVVRQTPTQHFANQFPALHWEHEKGLAFTKNRMNYTNKFLLIPESGDYFIYSQVTFRGYTSECSEIRAAGRPNKPDSITVVITKVTDLYPEPTQLLMGTKSVCEVGSFWFQPIYLGAMFSLQEGDKLMVNVSDISLVDYTKEDKTFFGAFLLGGSGGSGGSVYAPLRADGDKPRAHLTVVRQTPTQHFANQFPALHWEHEKGLAFTKNRMNYTNKFLLIPESGDYFIYSQVTFRGYTSECSEIRAAGRPNKPDSITVVITKVTDLYPEPTQLLMGTKSVCEVGSFWFQPIYLGAMFSLQEGDKLMVNVSDISLVDYTKEDKTFFGAFLLGGSGGSGGSVYAPLRADGDKPRAHLTVVRQTPTQHFANQFPALHWEHEKGLAFTKNRMNYTNKFLLIPESGDYFIYSQVTFRGYTSECSEIRAAGRPNKPDSITVVITKVTDLYPEPTQLLMGTKSVCEVGSFWFQPIYLGAMFSLQEGDKLMVNVSDISLVDYTKEDKTFFGAFLL
notes: TL1A (TNFSF15), human, residues 84-251; first of three units; linker between TL1A units; second unit; third unit; combination mutant in the Fc-scTL1A format; the mutations are written on each of the three TL1A units; source: Expi293 cells, transfected, purified (mAbSelect SuRe); not shown: Fc (IgG1), N-terminal, kept
B2: TL1W331.001 (K111A L123K Q167A S187L E190F N207F) (Fc fusion, human)
chain: B1 chain with Y75M, E107F, Y252M, E284F, Y429M, E461F
notes: TL1A (TNFSF15), human, residues 84-251; first of three units; linker between TL1A units; second unit; third unit; combination mutant in the Fc-scTL1A format; the mutations are written on each of the three TL1A units; also called Fc-scTL1A-AKALFF; Fc-scTL1A AKALFF; source: Expi293 cells, transfected, purified (mAbSelect SuRe); not shown: Fc (IgG1), N-terminal, kept
B3: TL1W327.001 (K111A L123K M158Y Q167A S187L E190F) (Fc fusion, human)
chain: B1 chain with E107F, F124N, E284F, F301N, E461F, F478N
notes: TL1A (TNFSF15), human, residues 84-251; first of three units; linker between TL1A units; second unit; third unit; combination mutant in the Fc-scTL1A format; the mutations are written on each of the three TL1A units; also called AKYALF190; source: Expi293 cells, transfected, purified (mAbSelect SuRe); not shown: Fc (IgG1), N-terminal, kept
B4: TL1W329.001 (K111A L123K M158Y Q167A E190F N207F) (Fc fusion, human)
chain: B1 chain with L104S, E107F, L281S, E284F, L458S, E461F
notes: as for B1
B5: His-TL1A (TL1W2) (ligand, human, UniProt O95150 1-251, looked up)
chain: VYAPLRADGDKPRAHLTVVRQTPTQHFKNQFPALHWEHELGLAFTKNRMNYTNKFLLIPESGDYFIYSQVTFRGMTSECSEIRQAGRPNKPDSITVVITKVTDSYPEPTQLLMGTKSVCEVGSNWFQPIYLGAMFSLQEGDKLMVNVSDISLVDYTKEDKTFFGAFLL
notes: TL1A (TNFSF15), human; C-terminal extracellular domain comprising the TNF homology domain; non-covalent trimer; also called wild-type TL1A; source: Expi293 cells, transfected, purified (Ni-NTA, preparative gel filtration)
B6: Fc-TL1A (TL1W3) (Fc fusion, human, UniProt O95150 1-251, looked up)
chain: B5 chain
notes: TL1A (TNFSF15), human; C-terminal extracellular domain comprising the TNF homology domain; 3:2 ratio of Fc:TL1A trimers; also called Fc-TL1A W3; source: Expi293 cells, transfected, purified (mAbSelect SuRe, preparative gel filtration); not shown: Fc (IgG1), N-terminal, kept
B7: HSA-TL1A (TL1W9) (ligand, human, UniProt O95150 1-251, looked up)
chain: B5 chain
notes: TL1A (TNFSF15), human; C-terminal extracellular domain comprising the TNF homology domain; ratio of HSA to TL1A trimer 3:1; source: Expi293 cells, transfected, purified (Ni-NTA, preparative gel filtration); not shown: HSA (human serum albumin), N-terminal, kept
B8: Recombinant DR3-Fc (Fc fusion, UniProt Q93038 25-199, looked up)
chain: QGGTRSPRCDCAGDFHKKIGLFCCRGCPAGHYLKAPCTEPCGNSTCLVCPQDTFLAWENHHNSECARCQACDEQASQVALENCSAVADTRCGCKPGWFVECQVSQCVSSSPFYCQPCLDCGALHRHTRLLCSRRDTDCGTCLPGFYEHGDGCVSCPTSTLGSCPERCAAVCGWRQ
notes: death receptor 3 (DR3); dimeric MW ~92 kDa as printed; the catalogue product is, as I recall, the human extracellular domain fused to human IgG1 Fc; also called death receptor 3; source: bought: R&D Systems, cat. # 943-D3

How the values were obtained:
[1] = target: B8; experiment: ELISA; DR3-Fc immobilised non-specifically on Maxisorp plates (overnight, 4 °C), casein block; TL1A added in 3-fold dilutions, overnight 4 °C; bound TL1A detected with polyclonal rabbit anti-human TL1A-biotin and streptavidin-HRP; concentrations normalised to TL1A trimers; triplicate; settings: both partners purified
[2] = target: T1, DcR3 (TNFRSF6B); experiment: ELISA; TL1A variants on DcR3; who was immobilised is not told for DcR3; triplicate; settings: both partners purified
[3] = target: the molecule itself; experiment: SEC; preparative gel filtration after affinity capture, Sepax SRT-C SEC-300, 20 mM sodium phosphate pH 6.8; the main peak is taken as the target oligomer
[4] = target: B6; experiment: ELISA; reversed format: TL1A molecules immobilised, DR3 titrated; settings: both partners purified
[5] = target: B7; experiment: as above; settings: both partners purified
[6] = target: B5; experiment: as above; settings: both partners purified

Binder | EC50 [1] [nM] | stoichiometry N [3] | also measured
B1 | 8.8 | – | –
B2 | 9 | – | –
B3 | 37.5 | – | –
B4 | 8.7 | – | –
B5 | 26.2 | 3 | EC50 [2]: 4.6 nM
B6 | – | 6 | –
B7 | – | 3 | –
B8 | – | – | EC50 [4]: 2.6 nM; EC50 [5]: > 4000 nM; EC50 [6]: 2.5 nM
